Experimental data reported in article PMC9834221, “TLR3 forms a laterally aligned multimeric complex along double-stranded RNA for efficient signal transduction”.

B1: mouse Toll-like receptor 3 (TLR3) extracellular domain (ECD), wild type [mouse] / itself (parent)
chain: TNQCTVRYNVADCSHLKLTHIPDDLPSNITVLNLTHNQLRRLPPTNFTRYSQLAILDAGFNSISKLEPELCQILPLLKVLNLQHNELSQISDQTFVFCTNLTELDLMSNSIHKIKSNPFKNQKNLIKLDLSHNGLSSTKLGTGVQLENLQELLLAKNKILALRSEELEFLGNSSLRKLDLSSNPLKEFSPGCFQTIGKLFALLLNNAQLNPHLTEKLCWELSNTSIQNLSLANNQLLATSESTFSGLKWTNLTQLDLSYNNLHDVGNGSFSYLPSLRYLSLEYNNIQRLSPRSFYGLSNLRYLSLKRAFTKQSVSLASHPNIDDFSFQWLKYLEYLNMDDNNIPSTKSNTFTGLVSLKYLSLSKTFTSLQTLTNETFVSLAHSPLLTLNLTKNHISKIANGTFSWLGQLRILDLGLNEIEQKLSGQEWRGLRNIFEIYLSYNKYLQLSTSSFALVPSLQRLMLRRVALKNVDISPSPFRPLRNLTILDLSNNNIANINEDLLEGLENLEILDFQHNNLARLWKRANPGGPVNFLKGLSHLHILNLESNGLDEIPVGVFKNLFELKSINLGLNNLNKLEPFIFDDQTSLRSLNLQKNLITSVEKDVFGPPFQNLNSLDMRFNPFDCTCESISWFVNWINQTHTNISELSTHYLCNTPHHYYGFPLKLFDTSSCKDSAPFEL

Variants of: B1
Test: cryo-EM 2D classification (fraction of tetrameric TLR3 particles on 90 bp dsRNA)
Settings: with itself; TLR3 0.2 mg/mL (~2.4 µM) with 3.6 molar amount of 90 bp dsRNA (0.5 mg/mL, ~8.6 µM); 25 mM MES-NaOH pH 5.3 and 0.2 M NaCl; on ice for 2–3 h; parent: 11; read off a plot

Row | screen value [%] | Variant
1 | 3.6 | chain 1 E499K D500K
2 | 2.7 | chain 1 E499K D500K E503K
3 | 0.75 | chain 1 S91E Q93E K113E K115E N117E K120E N121E
4 | 12 | chain 1 N498K E499K E503K
5 | 1.6 | chain 1 Q93E V96E K113E K115E N117E K120E N121E
